This is an account of results in PMC10053435, “Crystal structures of dimeric and heptameric mtHsp60 reveal the mechanism of chaperonin inactivation” (Life Science Alliance, 2023).

Series [1] concerns the molecule itself. Briefly: SEC; protein homogenised and purified at 4°C (LT); Superdex S200pg 16/600, 25 mM Tris-HCl pH 7.6, 150 mM NaCl, 1 ml/min. (SEC sorts molecules by how far they enter the pores of the column.)
Series [2] deals with the molecule itself. Kind of series: SEC; protein homogenised and purified at room temperature (RT, 25°C); Superdex S200pg 16/600, 25 mM Tris-HCl pH 7.6, 150 mM NaCl, 1 ml/min.

B1: naïve Epinephelus coioides mtHsp60 (EcHsp60), with the mitochondrial importing signal (natural protein)
chain: MFRLPTVMKQVRPVCRALAPHLTRAYAKDVKFGADARALMLQGVDLLADAVAVTMGPKGRTVIIEQSWGSPKVTKDGVTVAKSIDLKDKYKNIGAKLVQDVANNTNEEAGDGTTTATVLARAIAKEGFDTISKGANPVEIRRGVMMAVETVIKELKNLSKPVTTPEEIAQVATISANGDVEIGNIISNAMKKVGRKGVITVKDGKTLHDELEIIEGMKFDRGYISPYFINTAKGQKCEFQDAYLLLSEKKISSVQSIVPALEIANQHRKPLVIVAEDVDGEALSTLVLNRLKVGLQVVAVKAPGFGDNRKNQLRDMAVATGGTVFGDEAVGLALEDIQAHDFGKIGEVQITKDDTLLLKGGGSPAEVEKRAAEIVEQLENTTSDYEKEKLNERLAKLSDGVAVLKVGGTSDVEVNEKKDRVTDALNATRAAVEEGIVPGGGCALLRCIPSLDAIQTANADQKIGVEIIRRALRIPAMTIAKNAGVEGSLVVEKILQGSAELGYDAMQGEYVNMVEKGIIDPTKVVRTALLDAAGVASLLSTAEAVVTEIPKEEKEMPGGMGGMGGMGGMGGMGGGMGF
For B1, the figures for the “stoichiometry N” value in series [1] and in series [2] were 2 and 7, respectively.

B2: naïve EcHsp60^ΔC (C-terminal GGM repeats truncated, Δ527–552) (domain or fragment)
chain: MFRLPTVMKQVRPVCRALAPHLTRAYAKDVKFGADARALMLQGVDLLADAVAVTMGPKGRTVIIEQSWGSPKVTKDGVTVAKSIDLKDKYKNIGAKLVQDVANNTNEEAGDGTTTATVLARAIAKEGFDTISKGANPVEIRRGVMMAVETVIKELKNLSKPVTTPEEIAQVATISANGDVEIGNIISNAMKKVGRKGVITVKDGKTLHDELEIIEGMKFDRGYISPYFINTAKGQKCEFQDAYLLLSEKKISSVQSIVPALEIANQHRKPLVIVAEDVDGEALSTLVLNRLKVGLQVVAVKAPGFGDNRKNQLRDMAVATGGTVFGDEAVGLALEDIQAHDFGKIGEVQITKDDTLLLKGGGSPAEVEKRAAEIVEQLENTTSDYEKEKLNERLAKLSDGVAVLKVGGTSDVEVNEKKDRVTDALNATRAAVEEGIVPGGGCALLRCIPSLDAIQTANADQKIGVEIIRRALRIPAMTIAKNAGVEGSLVVEKILQGSAELGYDAMQGEYVNMVEKGIIDPTKVVRTALLDAAGVASLLSTAEAVVTEIPKE
As for B2, the stoichiometry N (as a rule, a count of units in the complex or per binding partner) in series [1] was 7.
